Experiments:
Assay in all cases: BioID-MS +ONC201
AARS2 (human) = AARS2 (human) (UniProt Q5JTZ9)
ABHD10 (human) = ABHD10 (human) (UniProt Q9NUJ1)
ACAA2 (human) = ACAA2 (human) (UniProt P42765)
ACAD9 (human) = ACAD9 (human) (UniProt Q9H845)
ACADM (human) = ACADM (human) (UniProt P11310)
AFG3L2 (human) = AFG3L2 (human) (UniProt Q9Y4W6)
ALDH4A1 (human) = ALDH4A1 (human) (UniProt P30038)
BCKDHA (human) = BCKDHA (human) (UniProt P12694)
C20orf72 (human) = C20orf72 (human) (UniProt Q9BQP7)
CDK5RAP1 (human) = CDK5RAP1 (human) (UniProt Q96SZ6)
DHRS4 (human) = DHRS4 (human) (UniProt Q9BTZ2)
EFHA1 (human) = EFHA1 (human) (UniProt Q8IYU8)
ETFB (human) = ETFB (human) (UniProt P38117)
GLS (human) = GLS (human) (UniProt O94925)
GLUD1 (human) = GLUD1 (human) (UniProt P00367)
GTPBP3 (human) = GTPBP3 (human) (UniProt Q969Y2)
HARS2 (human) = HARS2 (human) (UniProt P49590)
HINT2 (human) = HINT2 (human) (UniProt Q9BX68)
IDE (human) = IDE (human) (UniProt P14735)
IDH3A (human) = IDH3A (human) (UniProt P50213)
K1AA0564 (human) = K1AA0564 (human) (UniProt A3KMH1)
LYRM4 (human) = LYRM4 (human) (UniProt Q9HD34)
MARS2 (human) = MARS2 (human) (UniProt Q96GW9)
MRPL14 (human) = MRPL14 (human) (UniProt Q6P1L8)
MRPL48 (human) = MRPL48 (human) (UniProt Q96GC5)
MRPS15 (human) = MRPS15 (human) (UniProt P82914)
MRPS26 (human) = MRPS26 (human) (UniProt Q9BYN8)
MRRF (human) = MRRF (human) (UniProt Q96E11)
MTHFD1L (human) = MTHFD1L (human) (UniProt Q6UB35)
NDUFA2 (human) = NDUFA2 (human) (UniProt O43678)
NDUFA6 (human) = NDUFA6 (human) (UniProt P56556)
NDUFAF5 (human) = NDUFAF5 (human) (UniProt Q5TEU4)
NDUFS4 (human) = NDUFS4 (human) (UniProt O43181)
NDUFS7 (human) = NDUFS7 (human) (UniProt O75251)
NFS1 (human) = NFS1 (human) (UniProt Q9Y697)
NIPSNAP1 (human) = NIPSNAP1 (human) (UniProt Q9BPW8)
NME4 (human) = NME4 (human) (UniProt O00746)
NUBPL (human) = NUBPL (human) (UniProt Q8TB37)
NUDT1 (human) = NUDT1 (human) (UniProt P36639)
NUDT19 (human) = NUDT19 (human) (UniProt A8MXV4)
OXA1L (human) = OXA1L (human) (UniProt Q15070)
PAM16 (human) = PAM16 (human) (UniProt Q9Y3D7)
PDPR (human) = PDPR (human) (UniProt Q8NCN5)
PET112 (human) = PET112 (human) (UniProt O75879)
POLG2 (human) = POLG2 (human) (UniProt Q9UHN1)
PYCR1 (human) = PYCR1 (human) (UniProt P32322)
SDHAF3 (human) = SDHAF3 (human) (UniProt Q9NRP4)
SHMT2 (human) = SHMT2 (human) (UniProt P34897)
SUCLA2 (human) = SUCLA2 (human) (UniProt Q9P2R7)
VWA8 (human) = VWA8 (human) (UniProt A3KMH1)
WARS2 (human) = WARS2 (human) (UniProt Q9UGM6)

LYRM4 (human), sequence (Q9HD34 whole entry): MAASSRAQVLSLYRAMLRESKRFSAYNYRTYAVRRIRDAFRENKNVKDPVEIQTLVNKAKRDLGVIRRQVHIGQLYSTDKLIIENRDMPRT
HARS2 (human), sequence (P49590 34-506 limits assumed): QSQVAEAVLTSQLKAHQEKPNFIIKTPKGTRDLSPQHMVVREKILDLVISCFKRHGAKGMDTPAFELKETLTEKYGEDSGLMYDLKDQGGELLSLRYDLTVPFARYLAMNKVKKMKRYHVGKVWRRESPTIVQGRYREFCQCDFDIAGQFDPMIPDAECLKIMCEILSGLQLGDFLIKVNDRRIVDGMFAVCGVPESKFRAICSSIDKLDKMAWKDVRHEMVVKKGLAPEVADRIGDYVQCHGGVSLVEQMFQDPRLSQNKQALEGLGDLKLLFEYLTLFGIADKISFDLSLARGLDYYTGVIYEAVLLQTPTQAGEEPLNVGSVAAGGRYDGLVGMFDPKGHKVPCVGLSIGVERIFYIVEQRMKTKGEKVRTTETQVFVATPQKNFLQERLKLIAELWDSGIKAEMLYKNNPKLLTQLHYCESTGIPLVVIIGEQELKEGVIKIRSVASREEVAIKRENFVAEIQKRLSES
NUDT19 (human), sequence (A8MXV4 whole entry): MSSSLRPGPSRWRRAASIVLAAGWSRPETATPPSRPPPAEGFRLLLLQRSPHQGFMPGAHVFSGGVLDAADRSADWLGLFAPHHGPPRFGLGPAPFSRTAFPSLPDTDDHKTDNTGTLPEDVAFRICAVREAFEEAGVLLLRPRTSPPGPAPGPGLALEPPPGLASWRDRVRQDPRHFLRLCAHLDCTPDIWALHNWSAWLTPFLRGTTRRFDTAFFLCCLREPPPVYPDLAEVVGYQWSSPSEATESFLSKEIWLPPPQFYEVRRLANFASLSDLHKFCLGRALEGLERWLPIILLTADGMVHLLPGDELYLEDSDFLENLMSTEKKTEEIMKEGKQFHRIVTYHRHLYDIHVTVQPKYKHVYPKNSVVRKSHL
ACADM (human), sequence (P11310 26-421 limits assumed): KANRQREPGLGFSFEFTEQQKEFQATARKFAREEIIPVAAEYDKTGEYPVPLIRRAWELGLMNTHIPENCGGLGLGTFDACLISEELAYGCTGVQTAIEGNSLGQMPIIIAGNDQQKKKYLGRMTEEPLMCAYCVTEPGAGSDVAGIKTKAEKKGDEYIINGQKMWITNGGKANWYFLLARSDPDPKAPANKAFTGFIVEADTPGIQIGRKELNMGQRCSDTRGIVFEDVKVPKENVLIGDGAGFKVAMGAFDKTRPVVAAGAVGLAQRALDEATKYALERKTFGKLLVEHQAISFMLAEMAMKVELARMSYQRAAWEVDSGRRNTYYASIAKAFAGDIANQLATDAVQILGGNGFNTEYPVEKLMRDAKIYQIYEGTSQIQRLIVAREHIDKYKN
ABHD10 (human), sequence (Q9NUJ1 53-306 limits assumed): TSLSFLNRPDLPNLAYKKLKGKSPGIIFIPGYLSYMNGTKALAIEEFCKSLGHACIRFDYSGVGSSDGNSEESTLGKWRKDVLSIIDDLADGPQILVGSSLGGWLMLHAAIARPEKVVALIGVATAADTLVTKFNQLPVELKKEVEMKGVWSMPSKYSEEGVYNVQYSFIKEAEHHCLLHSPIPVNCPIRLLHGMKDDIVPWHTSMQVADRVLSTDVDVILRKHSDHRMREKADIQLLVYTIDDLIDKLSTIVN
ALDH4A1 (human), sequence (P30038 25-563 limits assumed): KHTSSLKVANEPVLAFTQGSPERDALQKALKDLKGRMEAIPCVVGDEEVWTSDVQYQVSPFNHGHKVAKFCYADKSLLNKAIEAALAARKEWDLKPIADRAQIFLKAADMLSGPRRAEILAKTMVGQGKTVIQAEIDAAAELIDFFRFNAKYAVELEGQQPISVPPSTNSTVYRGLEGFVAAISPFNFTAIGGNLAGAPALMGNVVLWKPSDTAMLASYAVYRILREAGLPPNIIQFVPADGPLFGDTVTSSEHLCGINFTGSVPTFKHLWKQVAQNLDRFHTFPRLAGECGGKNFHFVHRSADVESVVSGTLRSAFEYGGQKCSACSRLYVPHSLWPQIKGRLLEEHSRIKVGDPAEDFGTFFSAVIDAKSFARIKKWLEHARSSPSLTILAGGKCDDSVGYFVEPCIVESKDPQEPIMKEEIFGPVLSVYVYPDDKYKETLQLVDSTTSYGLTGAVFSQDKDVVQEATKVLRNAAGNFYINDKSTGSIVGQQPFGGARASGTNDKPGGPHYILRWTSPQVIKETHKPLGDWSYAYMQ
MTHFD1L (human), sequence (Q6UB35 32-978 limits assumed): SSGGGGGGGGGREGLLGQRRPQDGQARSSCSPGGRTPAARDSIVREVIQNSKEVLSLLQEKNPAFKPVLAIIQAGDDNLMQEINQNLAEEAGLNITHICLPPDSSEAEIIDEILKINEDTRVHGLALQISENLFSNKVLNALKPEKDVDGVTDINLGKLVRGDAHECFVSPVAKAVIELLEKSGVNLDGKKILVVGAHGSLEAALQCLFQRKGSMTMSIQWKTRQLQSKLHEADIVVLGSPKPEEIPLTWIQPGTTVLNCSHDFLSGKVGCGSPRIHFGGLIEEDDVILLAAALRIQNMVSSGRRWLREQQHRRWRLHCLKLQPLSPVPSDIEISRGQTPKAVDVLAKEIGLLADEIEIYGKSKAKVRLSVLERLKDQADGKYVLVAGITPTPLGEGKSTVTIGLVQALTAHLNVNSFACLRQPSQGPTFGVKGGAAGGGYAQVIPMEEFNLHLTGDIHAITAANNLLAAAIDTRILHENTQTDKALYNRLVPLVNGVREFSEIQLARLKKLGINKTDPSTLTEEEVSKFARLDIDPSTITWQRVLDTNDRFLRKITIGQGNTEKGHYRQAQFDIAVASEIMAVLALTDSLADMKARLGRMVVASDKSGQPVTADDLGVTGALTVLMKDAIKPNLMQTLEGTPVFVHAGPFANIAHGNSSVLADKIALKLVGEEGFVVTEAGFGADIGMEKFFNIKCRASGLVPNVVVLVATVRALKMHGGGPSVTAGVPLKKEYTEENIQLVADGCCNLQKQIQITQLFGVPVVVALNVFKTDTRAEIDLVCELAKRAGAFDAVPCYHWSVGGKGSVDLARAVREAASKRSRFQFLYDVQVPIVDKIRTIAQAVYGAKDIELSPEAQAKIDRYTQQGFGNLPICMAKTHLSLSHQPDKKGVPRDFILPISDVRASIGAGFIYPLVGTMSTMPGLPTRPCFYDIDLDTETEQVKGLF
NDUFS4 (human), sequence (O43181 43-175 limits assumed): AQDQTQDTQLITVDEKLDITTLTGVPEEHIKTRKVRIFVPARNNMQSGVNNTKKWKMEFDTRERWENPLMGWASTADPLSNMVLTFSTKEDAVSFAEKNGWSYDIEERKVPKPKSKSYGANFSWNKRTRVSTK
C20orf72 (human), sequence (Q9BQP7 whole entry): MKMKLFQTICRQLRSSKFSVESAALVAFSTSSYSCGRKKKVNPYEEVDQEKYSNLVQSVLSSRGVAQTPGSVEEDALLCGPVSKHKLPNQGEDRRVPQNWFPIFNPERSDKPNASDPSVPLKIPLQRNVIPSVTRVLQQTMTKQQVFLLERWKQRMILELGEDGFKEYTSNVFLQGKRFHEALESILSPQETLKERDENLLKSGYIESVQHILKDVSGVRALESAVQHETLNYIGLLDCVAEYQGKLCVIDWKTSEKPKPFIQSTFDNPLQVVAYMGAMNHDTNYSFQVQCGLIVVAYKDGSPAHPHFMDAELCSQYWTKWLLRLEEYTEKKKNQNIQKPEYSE
AARS2 (human), sequence (Q5JTZ9 24-985 limits assumed): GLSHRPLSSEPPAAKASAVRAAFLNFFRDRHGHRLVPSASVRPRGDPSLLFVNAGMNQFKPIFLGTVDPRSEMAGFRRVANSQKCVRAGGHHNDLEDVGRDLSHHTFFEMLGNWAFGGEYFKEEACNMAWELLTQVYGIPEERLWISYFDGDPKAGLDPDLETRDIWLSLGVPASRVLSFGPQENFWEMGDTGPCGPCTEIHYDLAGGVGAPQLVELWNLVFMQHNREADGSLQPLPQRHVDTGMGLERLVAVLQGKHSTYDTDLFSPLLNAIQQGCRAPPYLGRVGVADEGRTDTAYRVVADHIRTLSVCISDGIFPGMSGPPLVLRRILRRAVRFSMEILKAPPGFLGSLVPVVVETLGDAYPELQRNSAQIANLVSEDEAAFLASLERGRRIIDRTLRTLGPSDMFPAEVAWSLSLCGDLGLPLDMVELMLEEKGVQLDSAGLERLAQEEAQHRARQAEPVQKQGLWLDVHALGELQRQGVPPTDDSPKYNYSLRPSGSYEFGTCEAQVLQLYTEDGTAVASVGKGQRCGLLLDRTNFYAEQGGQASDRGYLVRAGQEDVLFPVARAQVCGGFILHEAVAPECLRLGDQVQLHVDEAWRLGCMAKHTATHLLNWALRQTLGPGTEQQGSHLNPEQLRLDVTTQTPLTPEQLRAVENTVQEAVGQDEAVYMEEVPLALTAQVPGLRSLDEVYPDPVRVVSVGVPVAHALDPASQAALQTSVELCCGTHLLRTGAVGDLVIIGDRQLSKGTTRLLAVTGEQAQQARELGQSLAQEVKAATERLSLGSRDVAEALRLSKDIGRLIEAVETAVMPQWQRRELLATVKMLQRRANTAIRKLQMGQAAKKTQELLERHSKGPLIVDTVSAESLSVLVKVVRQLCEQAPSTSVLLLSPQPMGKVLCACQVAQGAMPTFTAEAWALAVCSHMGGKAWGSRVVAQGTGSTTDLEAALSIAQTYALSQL
PYCR1 (human), sequence (P32322 2-319 limits assumed): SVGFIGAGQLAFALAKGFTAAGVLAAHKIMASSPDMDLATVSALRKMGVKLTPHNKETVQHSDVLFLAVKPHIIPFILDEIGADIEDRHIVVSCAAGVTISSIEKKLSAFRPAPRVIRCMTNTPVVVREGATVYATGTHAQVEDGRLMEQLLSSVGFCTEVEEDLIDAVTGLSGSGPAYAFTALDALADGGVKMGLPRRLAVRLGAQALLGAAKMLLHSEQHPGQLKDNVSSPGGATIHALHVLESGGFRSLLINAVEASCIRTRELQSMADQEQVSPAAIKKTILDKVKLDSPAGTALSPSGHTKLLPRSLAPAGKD
SDHAF3 (human), sequence (Q9NRP4 31-125 limits assumed): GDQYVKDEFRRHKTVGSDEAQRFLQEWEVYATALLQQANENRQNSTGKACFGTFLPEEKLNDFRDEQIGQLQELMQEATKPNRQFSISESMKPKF

FlagBirA-ClpP (WT) (from UniProt P06709 1-321; Q16740 57-277) (enzyme)
Log2 Fold change (vs control) (AARS2 (human)): -5.73 log2
Log2 Fold change (vs control) (ABHD10 (human)): -1.53 log2
Log2 Fold change (vs control) (ACAA2 (human)): -0.88 log2
Log2 Fold change (vs control) (ACAD9 (human)): -0.76 log2
Log2 Fold change (vs control) (ACADM (human)): -1.06 log2
Log2 Fold change (vs control) (AFG3L2 (human)): -0.14 log2
Log2 Fold change (vs control) (ALDH4A1 (human)): -2.21 log2
Log2 Fold change (vs control) (BCKDHA (human)): -4.32 log2
Log2 Fold change (vs control) (C20orf72 (human)): -3.52 log2
Log2 Fold change (vs control) (CDK5RAP1 (human)): -4.17 log2
Log2 Fold change (vs control) (DHRS4 (human)): -2.32 log2
Log2 Fold change (vs control) (EFHA1 (human)): -0.47 log2
Log2 Fold change (vs control) (ETFB (human)): -1.35 log2
Log2 Fold change (vs control) (GLS (human)): -0.71 log2
Log2 Fold change (vs control) (GLUD1 (human)): -1.63 log2
Log2 Fold change (vs control) (GTPBP3 (human)): -2.58 log2
Log2 Fold change (vs control) (HARS2 (human)): -1.3 log2
Log2 Fold change (vs control) (HINT2 (human)): -1.17 log2
Log2 Fold change (vs control) (IDE (human)): -1.97 log2
Log2 Fold change (vs control) (IDH3A (human)): -2 log2
Log2 Fold change (vs control) (K1AA0564 (human)): -0.71 log2
Log2 Fold change (vs control) (LYRM4 (human)): 0 log2
Log2 Fold change (vs control) (MARS2 (human)): -4.52 log2
Log2 Fold change (vs control) (MRPL14 (human)): -3.46 log2
Log2 Fold change (vs control) (MRPL48 (human)): -4.17 log2
Log2 Fold change (vs control) (MRPS15 (human)): -4.91 log2
Log2 Fold change (vs control) (MRPS26 (human)): -6.38 log2
Log2 Fold change (vs control) (MRRF (human)): -5.49 log2
Log2 Fold change (vs control) (MTHFD1L (human)): -0.39 log2
Log2 Fold change (vs control) (NDUFA2 (human)): -6.32 log2
Log2 Fold change (vs control) (NDUFA6 (human)): -1.08 log2
Log2 Fold change (vs control) (NDUFAF5 (human)): -0.68 log2
Log2 Fold change (vs control) (NDUFS4 (human)): -5.93 log2
Log2 Fold change (vs control) (NDUFS7 (human)): -1.81 log2
Log2 Fold change (vs control) (NFS1 (human)): 0.55 log2
Log2 Fold change (vs control) (NIPSNAP1 (human)): -1.19 log2
Log2 Fold change (vs control) (NME4 (human)): -1.16 log2
Log2 Fold change (vs control) (NUBPL (human)): -4.17 log2
Log2 Fold change (vs control) (NUDT1 (human)): -1 log2
Log2 Fold change (vs control) (NUDT19 (human)): -3.1 log2
Log2 Fold change (vs control) (OXA1L (human)): -3 log2
Log2 Fold change (vs control) (PAM16 (human)): -5.91 log2
Log2 Fold change (vs control) (PDPR (human)): -4.95 log2
Log2 Fold change (vs control) (PET112 (human)): -3.03 log2
Log2 Fold change (vs control) (POLG2 (human)): -5.29 log2
Log2 Fold change (vs control) (PYCR1 (human)): -2.16 log2
Log2 Fold change (vs control) (SDHAF3 (human)): -3.82 log2
Log2 Fold change (vs control) (SHMT2 (human)): -0.51 log2
Log2 Fold change (vs control) (SUCLA2 (human)): -0.71 log2
Log2 Fold change (vs control) (VWA8 (human)): 1.69 log2
Log2 Fold change (vs control) (WARS2 (human)): -1.27 log2

From patent US20220143024A1, “METHODS OF USING IMIPRIDONES” (Board of Regents, The University of Texas System, priority 2019, published 2022)
